# Experimental data as given in the DeepSol protein solubility set.
# Experiment: soluble on expression in E. coli; label from the status in PepcDB or PDB records
row,Sequence,soluble on expression in E. coli
1,MMITRELVLKANREQPPYASILALAASGFSLEKSVQFSEKQQLALNLDGELLSNDVEIARIIAQSTDAADSLLGSSIIDFAVVDDLTNFIADAVTKNDYSLLLGKDFPTKILDNSLTVADFAIFSVAHNNPQLKAKFSGIIDKVLKEPTLAAAHNFVGLYKSAAAPTATASTGKEKKKDEGKFVELPGAEKGKVVVRFPPEASGYLHIGHAKAALLNQYYQQAFEGQLIMRFDDTNPAKENAHFEHVIKEDLSMLNIVPDRWTHSSDHFEMLLTMCEKLLKEGKAFVDDTDTETMRNEREQRQDSRNRSNTPEKNLQLWEEMKKGSPKGLTCCVRMKIDMKSNNGAMRDPTIYRCKPEEHVRTGLKYKVYPTYDFTCPIVDSVEGVTHALRTTEYHDRDDQYYFICDALGLRRPHIWEYARLNMTNTVMSKRKLTWFVDEGHVEGWDDPRLPTVRGVMRRGLTVEGLKQFIVAQGGSRSVVMMEWDKIWAFNKKVIDPVAPRYTALDSTSPLVSIELTDSISDDTSNVSLHPKNAEIGSKDVHKGKKLLLEQVDAAALKEGEIVTFVNWGNIKIGKIEKKGAVITKISATLQLDNTDYKKTTKVTWLGDVKAEAGKTIPVVTADYDHIISKAIIGKDEDWKQFINFDSVHYTKMVGEPAIKNVKKGDIIQIQRKGFYIVDQPYNPKSELSGVETPLLLIAIPDGHTGKEAEKPPKGAPVSAAASSGGSDALQLYNSIEQQGGIVRDLKTKDAKSQATKDAIAKLLDLKKKYKELTGSDHKPGAPPSAPAPTTPSSSESNSALNIYNLIEAQGLLVRELKGKDAKSQATKDAIAKLLELKKQYKEVSGSDHKPGVPPAASVASAPAPAPAAGSTNALDIYHQIESQGALVRELKGKDAKSQATKDAIAKLLALKKQYKEVTGSDHKPGVVPVSAPAPTPLAGGADIAGQIEAQGVLVRDLKNKDSKSQETKDAIAKLLELKKNYKEVTGSDYKPGPAPAAAPAKVTVPAPSVSGGDTLSKQIDDQALLVRELKMKDAKSQETKDAIAKLLQLKKQYKDATGSDYKPAPAQLAASAAAAPAPAPAFDEAALLKEIEEQGAVVRDAKSKDPKSQDSADAINKLLALKANFKKATGKDFPAPSNAQSKKGKKK,not soluble
2,MMKEFNPREIEKKWQKRWEEAGVFKAQEGKPNKFYVLEMFPYPSGRIHMGHVRNYTIGDAIARYLKMRGKNILHPMGWDAFGLPAENAAIKHGIHPAKWTYENIDYMKKQLKILGFSYDWDREIATCDPEYYKWNQWIFLKMLERGIAYRKTAKVNWCPHDQTVLANEQVIEGKCWRCGTPIVQKEVPSWFLRITAYADRLLEDLKKLEGKWPERVIAQQRNWIGRSEGALIRFYVEIEEPEKFLNCVPEELKETLLKEKRIYIDVFTTRPDTVFGATFVVLAPEHPLVPVLACIGERLGNACYSDVENFVEKMKKMSTRERTMEEDKEGVFLGVYATNPANGEKIPVWSANYVLYEYGTGAIMCVPAHDQRDWEFAKKYDLPIKVVVKPEGAWDFEKGAYEGKGTLVNSDGFDGLDSETAKRKITEWLQDRGLGEKKVSYRLRDWNISRQRYWGTPIPVVYCEKCGMVPVPEDQLPVKLPLDVKFTGQGNPLETSEEFVNTTCPKCGGKARRETDTMDTFFDSSWYFLRFCDPKNDREPFSREKVDYWMPVDVYIGGIEHAVLHLLYARFFQKFLKDLGLVRDDEPFEKLITQGMVLKKWVSVKKLLDYLGLSEEDEVEELKKRLEELGARRA,soluble
3,MMLRSHPNTLHITKLSHSAIHQLAPSFAQLPHTNHADGQYRLRRYSVIRFIDGQVVELDKHDFMQTDQINHFQGNVVRRFEPLLSTTLKSDGMRELCALFMEANTLPDGQEIEIHQMRIAAVFDETLVAPEGVHQDGFDHIAIVGIDRYNIVGGEIMLYLSSHEAPFFRKVLENGEVAMLADSQLWHNACPIRTVDHQQEGHMDVFVLTAKDGRHALHS,not soluble
4,MMMEIEDDEVPSPPSPHPAGTTIGGPNSKRYSDILSLDYCTFRIPYEELNIRFRNGQKDLDRAATGVAKAAELLQKKTAGSNEPVSRESLRRHFDLLIRQVQEARKTVERITQSEIEQLDKITTRADRIHEEFEVTRDSENPRNTEKLERQKFCRFIVWHMLRCGYIEPAKVLVKEMELEDLVDVDVFENMYAVQQALLDGNIQPCLAWCDRHHRKLRKLESRIELVARQQEAVTLIELGNIPEAVAYVKKYIAPIAKGKFTEDLKKTMGAIACTLEQSRLRNPELHAADRYQKCAALFIEEAHRIFEIHGNTALATLIQYGLATQKTPSCHNDEKTPLDKQKCIVCRPDVWPIAENLPYSHVANSRIFCSLSGKLCDDDKNIPFLFPSGHVIGSAAIERLKRDDNKLYDPIHKKLIDEEEALRLYFL,not soluble
5,MMNLRSIAMNKPDLVIFFDGQCPLCCNEMRALKTADHQARILLVDVHDTDTMSCYPSIDKQRALSILHGIDQQGQLLYGLDVTVLAWRLVNRHRWLFITRMPILKGISDRMYLLFAKHRMRLSRWFGQTQCQEGVCQKKLEHHHHHH,soluble
6,MMNNVKYLSFALILAFSACKSGSASSQEPSEKQDTVKIFNLPQIPVVLNTVEQRTDYMVKHYWDRFDFSDTTYINQAEVPEQAWVDYCDLLEHVPLPVAQTAMKETFNRAEKNRKMLHFFEELADKYLYDPNSPMRNEEFYIPVLEALIASPALDETAKIRPQARLELAQKNRLGTKALNFTYTLDSGVKGTLYQFPAEYTLLFINNPGCHACAEMIEGLKASPVINGFTAAKKLKVLSIYPDEELDEWKKHRNDFAKEWTNGYDKELVIKNKNLYDLRAIPTLYLLDKNKTVLLKDATLQKVEQYLAERG,not soluble
7,MMNWKQLISAKRFGMEEFHEERQENRSEFQRDYDRLIFSAPFRRLQNKTQVFPLPGSIFVHNRLTHSLEVSCVGRSLGNDVAKAILERQPELESSFLPEIGSIVSAACLAHDLGNPPFGHSGERAISTFFSEGKGQRLQEKQPDGEQLSPMEWEDLTHFEGNANAFRILTHQFEGRRRGGFVLTYSTLASIVKYPFSSSLAGKKSKFGFFVSEEESYRKIATELGLIQLSEQPLKYARHPLVYLVEAADDICYQMMDIEDAHKLKIITTDETKELLMAFFSEDRQSRLRSTFQIVNDINEQIAYLRSSVIGLLVRECTRVFLEHEQEILAGTFEGALIKHIAEGPAAAYNHCAEISLKRIYRSQDVLDIELAGFRIISTLLELMVDAVTLPGKEKAYSELLTNRVSDQYNIKSPVLYERIQAVLDYISGMTDVFALDLYRKINGNSLPAV,not soluble
8,MMQIDRNEKADAWLAHTQREQSGRLTIFLGAAPGVGKTYAMLTRAHELMQQGKQVVVGVVETHGRADTARLIAGLNVIPRRVVEYQDRKLEEMDLDQILHIKPEIVLVDELAHRNVPGSRHEYRWQDVNEILDAGINVYSTLNIQHLESLNDVVYQITGIRVTETVPDALLKRLKDIRLVDLPVPELLERMKHGKIYLDDMAPHALQGFFKPAHLTALRDLAIQTVAGQV,not soluble
9,MMQTSRPTLQLLTASACYRDDPTALFHQLCGARPATLLLESAEVDNKQNLKSLLVIDSALRITALGQTVTLEALTRNGASLLPLLDASLPTEVDIQVRPNGRELTFPLINEVQDEDSRLQSLSVFDALRQLLTLVNTPLAEREALFLGGLFAYDLVAGFENLPPLRQDQRCPDFCFYLAETLLVLDHQHRSTRLQASLFTPDSSEYQRLATRLEQLSHQLQQAPHPIPATSVPEMALQCNQSDEEYCNVVSELQVAIREGEIFQVVPSRRFTLPCPSPLAAYQTLKDHNPSPYMFFMQDNDFSLFGASPESALKYDASNRQIEIYPIAGTRPRGRRPNGELDRDLDSRIELEMRTDHKEMAEHLMLVDLARNDLARICEPGSRYVADLTKVDRYSFVMHLVSRVIGTLRQDLDVLHAYQACMNMGTLSGAPKVRAMQLIASNEGSRRGSYGGAVGYFTAHGDLDTCIVIRSAYVEDGIATVQAGAGVVLDSVPQAEADETRNKARAVLRAIATAHHAKEIF,not soluble
10,MMRLANGIVLDKDTTFGELKFSALRREVRIQNEDGSVSDEIKERTYDLKSKGQGRMIQVSIPASVPLKEFDYNARVELINPIADTVATATYQGADVDWYIKADDIVLTKDSLEHHHHHH,not soluble
11,MMSAYNKLVRDRVPEKILMSGKTYTAQKLTGQAYIQALAKIGTEEIREFASMKEREHALDSLADALEVIISLARAEGASIEDVERLRKQKEIERGGFERGIYLLDVSEE,not soluble
12,MMSTPPQNTRPVFSVDGLWKVFGPKAERVPADPELAALSAAELSERTGCTAAVRDVSFDVHKGEVFVVMGLSGSGKSTLVRCLTRLIEPTAGTIAIDGEDVRAMDRTRLRELRRHRASMVFQHFGLLPHRTVLDNVAYGLEIQGLGKAERRERAAEVVAKVGLEGMEQRKPGQLSGGQQQRVGLARALAVDPEVLLFDEPFSALDPLIRRDMQEEVVRLHREEGRTMVFITHDLNEALRLGDRIALMRDGRVVQLGTPEEIVGSPADDYVREFVRDVPREQVMTVRTAMRAASAEEAGSGPAVAPDATVSEAIEAVARAGSPARVVDSGRCVGVVDSEALLDVVAGVGASGPAPAVTAVPPFEPSRDFGNAGAGAAEAAPGDVTGEEVALEHHHHHH,soluble
13,MMTKTTTVPKNVYELAQERLRIVFNEFDNVYLSFSGGKDSGVLLSLCIDYIRRNNLKIKLGVFHMDYEIQYKMTIDYIARMLEDNKDILEVYRVCVPFRVATCTSMYQSFWRPWEDSKKDLWVRPLPENAMTKEDFPFYNTQMWDYEFQMRFASWLHEKKDAVRTCCLIGIRTQESFNRWRCIYLNRKYQMYHRYRWTSKVGNDIFNAYPIYDWKTTDVWTANGKFKWDYNKLYDYYYW,not soluble
14,MMTVAAEIRGSNPEKLLAPVLSAFWDEDESWTLDVYRRHEGYEGLRKALAMAPDDLIAYVKESGLRGRGGAGFPTGMKWQFIPQGDGKPHYLVVNADESEPGTCKDIPLLFANPHSLIEGIVIACYAIRSSHAFIYLRGEVVPVLRRLHEAVREAYAAGFLGENILGSGLDLTLTVHAGAGAYICGEETALLDSLEGRRGQPRLRPPFPAVAGLYACPTVVNNVESIASVPAILNKGKDWFRSMGSEKSPGFTLYSLSGHVAGPGQYEAPLGITLRQLLDMSGGMRPGHRLKFWTPGGSSTPMFTDEHLDVPLDYEGVGAAGSMLGTKALQCFDETTCVVRAVTRWTEFYAHESCGKCTPCREGTYWLVQLLRDIEAGKGQMSDLDKLNDIADNINGKSFCALGDGAASPIFSSLKYFREEYEEHITGRGCPFDPAKSTAWADRTEVKALEHHHHHH,not soluble
15,MMVEVRFFGPIKEENFFIKANDLKELRAILQEKEGLKEWLGVCAIALNDHLIDNLNTPLKDGDVISLLPPVCGG,not soluble
16,MMVMTDKFNYEELGLKVGLEIHRQLDTKKLFSPVPSELSDKVEFTFQRRLRPTMSELGEIDPAALEEFKKGRVYVYEGNYELTDLVYMDEEPPRGPDREALEVALQIAYLLNAKPVDEVYYMRKIVIDGSNVSGFQRTAIIATDGKVETPWGAVGIPTICLEEDAARIIERKDKEVIYRLDRLGIPLIEISTTPDIHHPEQAKVVAKFIGDALRATKKVKRGLGTIRQDLNVSIKGGARIEIKGVQELDMIPIIIEREVERQLNLLKIRDELRKRGVKPKDIKEEFYDVTDIFENTKSKIIARVIKKGGKVLAIKLPKFRGLIGREIQPGRRLGTEFADRAKKYVPGIFHIDELPNYGISQEEVNKVIERLNLSEEDAFVLVAAEEEKAKNALREVIKRAREAIEGVPEETRRALPDGNTEYMRPLPGKARMYPETDIPPLRIPDDLKKKIKENLPELPQAKVERYVKEYKLDRSLAQTLVDDERDELFEELVSMGVKPSLAASILVVVLKGLRKEVPIENVTDEHIREAFQLYLEGKIAKEAFEEIFKELARNPSKSAREVAEEKGLTLLSEEEVTRIIEEVIQQNIEVVKAKGMGAMGLIMGRVMAKVRGKADGKLVSQIVRRKLQEISGG,soluble
